Test results as given in PMC9371974 (Nature Structural & Molecular Biology, 2022).

What was measured:
Conditions in all cases: both partners purified
[1] = molecular target: recombinant mouse prion protein immobilised for SPR (mPrP) (Mus musculus, UniProt P04925); experiment: SPR
[2] = molecular target: mPrP immobilized on the SPR sensor chip (rmPrP) (Mus musculus, UniProt P04925); experiment: SPR
[3] = molecular target: full-length, recombinant mouse prion protein (rmPrP23-231) (Mus musculus, UniProt P04925); experiment: FRET or BRET
Sequence of full-length, recombinant mouse prion protein (rmPrP23-231) (P04925 23-231): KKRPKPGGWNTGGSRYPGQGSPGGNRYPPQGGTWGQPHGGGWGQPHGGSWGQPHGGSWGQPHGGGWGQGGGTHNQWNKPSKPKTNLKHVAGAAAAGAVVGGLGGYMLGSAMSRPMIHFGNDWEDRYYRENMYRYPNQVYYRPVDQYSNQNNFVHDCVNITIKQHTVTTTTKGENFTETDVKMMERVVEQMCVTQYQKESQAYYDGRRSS

Sequence of recombinant mouse prion protein immobilised for SPR (mPrP) (P04925 23-230): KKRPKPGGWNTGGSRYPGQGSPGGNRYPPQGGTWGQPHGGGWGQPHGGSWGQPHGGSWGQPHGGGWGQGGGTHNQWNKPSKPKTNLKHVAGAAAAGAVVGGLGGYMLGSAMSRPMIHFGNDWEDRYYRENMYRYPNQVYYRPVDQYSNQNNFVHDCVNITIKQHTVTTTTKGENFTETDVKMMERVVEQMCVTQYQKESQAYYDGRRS
Sequence of mPrP immobilized on the SPR sensor chip (rmPrP) (P04925 23-230): as above

Binder | Kd [1] | koff [1] | kon [1] | Kd [2] | Kd [3]
pomolog hcY57A (POM1 scFv, heavy chain Y57A) (scFv, V domains shown) VH: QVQLQQSGTELVMPGASVKMSCKASGYTFTDYWMHWVKQRPGQGLEWIGSIDPSDSATSHNEKFKGKATLTVDESSSTAYMQLSSLTSEDSAVYFCSRSGYGYYAMEYWGQGTSVTVSS VL: DIVLTQSPAILSVSPGERVSFSCRASQNIGTSIHWYQQRTNESPRLIIKYASESISGIPSRFSGSGSGTDFTLSINSVESEDIADYYCQQSNTWPYTFGGGTKLELK | 406 nM | 0.031 s⁻¹ | 77000 M⁻¹ s⁻¹ | – | –
pomolog lcS32A (POM1 scFv, light chain S32A) (scFv, V domains shown) VH: QVQLQQSGTELVMPGASVKMSCKASGYTFTDYWMHWVKQRPGQGLEWIGSIDPSDSYTSHNEKFKGKATLTVDESSSTAYMQLSSLTSEDSAVYFCSRSGYGYYAMEYWGQGTSVTVSS VL: DIVLTQSPAILSVSPGERVSFSCRASQNIGTAIHWYQQRTNESPRLIIKYASESISGIPSRFSGSGSGTDFTLSINSVESEDIADYYCQQSNTWPYTFGGGTKLELK | 10 nM | 0.00059 s⁻¹ | 64000 M⁻¹ s⁻¹ | – | –
pomolog hcD52A (POM1 scFv, heavy chain D52A) (scFv, V domains shown) VH: QVQLQQSGTELVMPGASVKMSCKASGYTFTDYWMHWVKQRPGQGLEWIGSIAPSDSYTSHNEKFKGKATLTVDESSSTAYMQLSSLTSEDSAVYFCSRSGYGYYAMEYWGQGTSVTVSS VL: DIVLTQSPAILSVSPGERVSFSCRASQNIGTSIHWYQQRTNESPRLIIKYASESISGIPSRFSGSGSGTDFTLSINSVESEDIADYYCQQSNTWPYTFGGGTKLELK | 103 nM | 0.046 s⁻¹ | 330000 M⁻¹ s⁻¹ | – | –
pomolog lcY50A (POM1 scFv, light chain Y50A) (scFv, V domains shown) VH: QVQLQQSGTELVMPGASVKMSCKASGYTFTDYWMHWVKQRPGQGLEWIGSIDPSDSYTSHNEKFKGKATLTVDESSSTAYMQLSSLTSEDSAVYFCSRSGYGYYAMEYWGQGTSVTVSS VL: DIVLTQSPAILSVSPGERVSFSCRASQNIGTSIHWYQQRTNESPRLIIKAASESISGIPSRFSGSGSGTDFTLSINSVESEDIADYYCQQSNTWPYTFGGGTKLELK | 313 nM | 0.0082 s⁻¹ | 57000 M⁻¹ s⁻¹ | – | –
POM1 scFv pomolog hcD52A (scFv, V domains shown) VH: QVQLQQSGTELVMPGASVKMSCKASGYTFTDYWMHWVKQRPGQGLEWIGSIAPSDSYTSHNEKFKGKATLTVDESSSTAYMQLSSLTSEDSAVYFCSRSGYGYYAMEYWGQGTSVTVSS VL: DIVLTQSPAILSVSPGERVSFSCRASQNIGTSIHWYQQRTNESPRLIIKYASESISGIPSRFSGSGSGTDFTLSINSVESEDIADYYCQQSNTWPYTFGGGTKLELK | – | – | – | 103 nM | 14.2 nM
pomolog hcY101A (POM1 scFv, heavy chain Y101A) (scFv, V domains shown) VH: QVQLQQSGTELVMPGASVKMSCKASGYTFTDYWMHWVKQRPGQGLEWIGSIDPSDSYTSHNEKFKGKATLTVDESSSTAYMQLSSLTSEDSAVYFCSRSGAGYYAMEYWGQGTSVTVSS VL: DIVLTQSPAILSVSPGERVSFSCRASQNIGTSIHWYQQRTNESPRLIIKYASESISGIPSRFSGSGSGTDFTLSINSVESEDIADYYCQQSNTWPYTFGGGTKLELK | 11 nM | 0.00071 s⁻¹ | 63000 M⁻¹ s⁻¹ | – | –
pomolog lcW94A (POM1 scFv, light chain W94A) (scFv, V domains shown) VH: QVQLQQSGTELVMPGASVKMSCKASGYTFTDYWMHWVKQRPGQGLEWIGSIDPSDSYTSHNEKFKGKATLTVDESSSTAYMQLSSLTSEDSAVYFCSRSGYGYYAMEYWGQGTSVTVSS VL: DIVLTQSPAILSVSPGERVSFSCRASQNIGTSIHWYQQRTNESPRLIIKYASESISGIPSRFSGSGSGTDFTLSINSVESEDIADYYCQQSNTAPYTFGGGTKLELK | 201 nM | 0.027 s⁻¹ | 310000 M⁻¹ s⁻¹ | – | –
POM1 scFv pomolog lcS32A (scFv, V domains shown) VH: QVQLQQSGTELVMPGASVKMSCKASGYTFTDYWMHWVKQRPGQGLEWIGSIDPSDSYTSHNEKFKGKATLTVDESSSTAYMQLSSLTSEDSAVYFCSRSGYGYYAMEYWGQGTSVTVSS VL: DIVLTQSPAILSVSPGERVSFSCRASQNIGTAIHWYQQRTNESPRLIIKYASESISGIPSRFSGSGSGTDFTLSINSVESEDIADYYCQQSNTWPYTFGGGTKLELK | – | – | – | 9.98 nM | 7.3 nM
POM1 scFv pomolog lcS91A (scFv, V domains shown) VH: QVQLQQSGTELVMPGASVKMSCKASGYTFTDYWMHWVKQRPGQGLEWIGSIDPSDSYTSHNEKFKGKATLTVDESSSTAYMQLSSLTSEDSAVYFCSRSGYGYYAMEYWGQGTSVTVSS VL: DIVLTQSPAILSVSPGERVSFSCRASQNIGTSIHWYQQRTNESPRLIIKYASESISGIPSRFSGSGSGTDFTLSINSVESEDIADYYCQQANTWPYTFGGGTKLELK | – | – | – | 1430 nM | 92.3 nM
POM1 scFv pomolog hcD55A (scFv, V domains shown) VH: QVQLQQSGTELVMPGASVKMSCKASGYTFTDYWMHWVKQRPGQGLEWIGSIDPSASYTSHNEKFKGKATLTVDESSSTAYMQLSSLTSEDSAVYFCSRSGYGYYAMEYWGQGTSVTVSS VL: DIVLTQSPAILSVSPGERVSFSCRASQNIGTSIHWYQQRTNESPRLIIKYASESISGIPSRFSGSGSGTDFTLSINSVESEDIADYYCQQSNTWPYTFGGGTKLELK | – | – | – | 372 nM | 110 nM
pomolog lcY96A (POM1 scFv, light chain Y96A) (scFv, V domains shown) VH: QVQLQQSGTELVMPGASVKMSCKASGYTFTDYWMHWVKQRPGQGLEWIGSIDPSDSYTSHNEKFKGKATLTVDESSSTAYMQLSSLTSEDSAVYFCSRSGYGYYAMEYWGQGTSVTVSS VL: DIVLTQSPAILSVSPGERVSFSCRASQNIGTSIHWYQQRTNESPRLIIKYASESISGIPSRFSGSGSGTDFTLSINSVESEDIADYYCQQSNTWPATFGGGTKLELK | 123 nM | 0.0074 s⁻¹ | 62000 M⁻¹ s⁻¹ | – | –
POM1 scFv pomolog hcY101A (scFv, V domains shown) VH: QVQLQQSGTELVMPGASVKMSCKASGYTFTDYWMHWVKQRPGQGLEWIGSIDPSDSYTSHNEKFKGKATLTVDESSSTAYMQLSSLTSEDSAVYFCSRSGAGYYAMEYWGQGTSVTVSS VL: DIVLTQSPAILSVSPGERVSFSCRASQNIGTSIHWYQQRTNESPRLIIKYASESISGIPSRFSGSGSGTDFTLSINSVESEDIADYYCQQSNTWPYTFGGGTKLELK | – | – | – | 11.5 nM | 1.5 nM
POM1 scFv pomolog hcY57A (scFv, V domains shown) VH: QVQLQQSGTELVMPGASVKMSCKASGYTFTDYWMHWVKQRPGQGLEWIGSIDPSDSATSHNEKFKGKATLTVDESSSTAYMQLSSLTSEDSAVYFCSRSGYGYYAMEYWGQGTSVTVSS VL: DIVLTQSPAILSVSPGERVSFSCRASQNIGTSIHWYQQRTNESPRLIIKYASESISGIPSRFSGSGSGTDFTLSINSVESEDIADYYCQQSNTWPYTFGGGTKLELK | – | – | – | 406 nM | 225 nM
pomolog hcY104A (POM1 scFv, heavy chain Y104A) (scFv, V domains shown) VH: QVQLQQSGTELVMPGASVKMSCKASGYTFTDYWMHWVKQRPGQGLEWIGSIDPSDSYTSHNEKFKGKATLTVDESSSTAYMQLSSLTSEDSAVYFCSRSGYGYAAMEYWGQGTSVTVSS VL: DIVLTQSPAILSVSPGERVSFSCRASQNIGTSIHWYQQRTNESPRLIIKYASESISGIPSRFSGSGSGTDFTLSINSVESEDIADYYCQQSNTWPYTFGGGTKLELK | 8.8 nM | 0.00021 s⁻¹ | 36000 M⁻¹ s⁻¹ | – | –
pomolog hcD55A (POM1 scFv, heavy chain D55A) (scFv, V domains shown) VH: QVQLQQSGTELVMPGASVKMSCKASGYTFTDYWMHWVKQRPGQGLEWIGSIDPSASYTSHNEKFKGKATLTVDESSSTAYMQLSSLTSEDSAVYFCSRSGYGYYAMEYWGQGTSVTVSS VL: DIVLTQSPAILSVSPGERVSFSCRASQNIGTSIHWYQQRTNESPRLIIKYASESISGIPSRFSGSGSGTDFTLSINSVESEDIADYYCQQSNTWPYTFGGGTKLELK | 372 nM | 0.037 s⁻¹ | 100000 M⁻¹ s⁻¹ | – | –
POM1 scFv pomolog lcY50A (scFv, V domains shown) VH: QVQLQQSGTELVMPGASVKMSCKASGYTFTDYWMHWVKQRPGQGLEWIGSIDPSDSYTSHNEKFKGKATLTVDESSSTAYMQLSSLTSEDSAVYFCSRSGYGYYAMEYWGQGTSVTVSS VL: DIVLTQSPAILSVSPGERVSFSCRASQNIGTSIHWYQQRTNESPRLIIKAASESISGIPSRFSGSGSGTDFTLSINSVESEDIADYYCQQSNTWPYTFGGGTKLELK | – | – | – | 313 nM | 63.4 nM
POM1 scFv pomolog lcY96A (scFv, V domains shown) VH: QVQLQQSGTELVMPGASVKMSCKASGYTFTDYWMHWVKQRPGQGLEWIGSIDPSDSYTSHNEKFKGKATLTVDESSSTAYMQLSSLTSEDSAVYFCSRSGYGYYAMEYWGQGTSVTVSS VL: DIVLTQSPAILSVSPGERVSFSCRASQNIGTSIHWYQQRTNESPRLIIKYASESISGIPSRFSGSGSGTDFTLSINSVESEDIADYYCQQSNTWPATFGGGTKLELK | – | – | – | 123 nM | 138 nM
POM1 scFv pomolog hcY104A (scFv, V domains shown) VH: QVQLQQSGTELVMPGASVKMSCKASGYTFTDYWMHWVKQRPGQGLEWIGSIDPSDSYTSHNEKFKGKATLTVDESSSTAYMQLSSLTSEDSAVYFCSRSGYGYAAMEYWGQGTSVTVSS VL: DIVLTQSPAILSVSPGERVSFSCRASQNIGTSIHWYQQRTNESPRLIIKYASESISGIPSRFSGSGSGTDFTLSINSVESEDIADYYCQQSNTWPYTFGGGTKLELK | – | – | – | 8.79 nM | 26 nM
POM1 scFv pomolog lcW94A (scFv, V domains shown) VH: QVQLQQSGTELVMPGASVKMSCKASGYTFTDYWMHWVKQRPGQGLEWIGSIDPSDSYTSHNEKFKGKATLTVDESSSTAYMQLSSLTSEDSAVYFCSRSGYGYYAMEYWGQGTSVTVSS VL: DIVLTQSPAILSVSPGERVSFSCRASQNIGTSIHWYQQRTNESPRLIIKYASESISGIPSRFSGSGSGTDFTLSINSVESEDIADYYCQQSNTAPYTFGGGTKLELK | – | – | – | 201 nM | 73.1 nM
pomolog lcS91A (POM1 scFv, light chain S91A) (scFv, V domains shown) VH: QVQLQQSGTELVMPGASVKMSCKASGYTFTDYWMHWVKQRPGQGLEWIGSIDPSDSYTSHNEKFKGKATLTVDESSSTAYMQLSSLTSEDSAVYFCSRSGYGYYAMEYWGQGTSVTVSS VL: DIVLTQSPAILSVSPGERVSFSCRASQNIGTSIHWYQQRTNESPRLIIKYASESISGIPSRFSGSGSGTDFTLSINSVESEDIADYYCQQANTWPYTFGGGTKLELK | 1430 nM | 0.018 s⁻¹ | 13000 M⁻¹ s⁻¹ | – | –
